Laboratory results reported in the supplement of paper PMC9170038.

System: MS2 coat protein
Assay: apparent KD of MS2 coat protein; designed switch direction (-1 OFF switch, 1 ON switch): -1; higher = weaker reporter binding
How it was run: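 The buffer was Tris-HCl pH 7.5 with KCl, MgCl2, BSA, DTT, tRNA and Tween-20. In it, SNAP-549-labelled MS2 coat protein was titrated in doubling steps from 0.7 or 1.5 nM to 3 µM over chip-bound RNA switches transcribed by stalled E. coli RNA polymerase on Illumina chips. Apparent KD is the per-design median over clusters of curve fits to normalised fluorescence.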

[1] = Eterna round: R95, input ligand: FMN 200 uM
[2] = Eterna round: R95, input ligand: microRNA oligo, concentration not stated
[3] = Eterna round: R95, input ligand: none
[4] = input ligand: microRNA oligo, concentration not stated

GAUUAUGCGAGCUUUAGGGACAUGAGGAUCACCCAUGUUCGUCUUAUUAAUCUAGGUACGCUAACAUACCUAAAUCU [JMF 39] (puzzle: Sensor v3, turn-off variant 1)
apparent KD of MS2 coat protein [1]: 20.3 nM | apparent KD of MS2 coat protein [2]: 34.3 nM | apparent KD of MS2 coat protein [3]: 20.6 nM

GAUUAUGCGAGCUUUAGGGACAUGAGGAUCACCCAUGUUCGUCUUAUUAAUCUGGGUACACUAACAUACCUAAAUCU [JMF 9] (puzzle: Sensor v3, turn-off variant 1)
apparent KD of MS2 coat protein [1]: 27.7 nM | apparent KD of MS2 coat protein [2]: 47.2 nM | apparent KD of MS2 coat protein [3]: 31.4 nM

GAUUAUGCGAGCUUUAGGGACAUGAGGAUCACCCAUGUUCGUCUUAUUAAUCUGGGUACACUGACAUACCUAAAUCU [JMF 69] (puzzle: Sensor v3, turn-off variant 1)
apparent KD of MS2 coat protein [1]: 32.1 nM | apparent KD of MS2 coat protein [2]: 48.4 nM | apparent KD of MS2 coat protein [3]: 33.9 nM

GAUUAUGCGAGCUUUAGGGACAUGAGGAUCACCCAUGUUCGUCUUAUUAAUCUGGGUGCGCUAACAUACCUAAAUCU [JMF 52] (puzzle: Sensor v3, turn-off variant 1)
apparent KD of MS2 coat protein [1]: 56 nM | apparent KD of MS2 coat protein [2]: 113 nM | apparent KD of MS2 coat protein [3]: 87.4 nM

GAUUAUGCGAGCUUUAGGGACAUGAGGAUCACCCAUGUUCGUCUUAUUAGUCUGAAUACACUGACAUACCUAAAUCU [JMF 55] (puzzle: Sensor v3, turn-off variant 1)
apparent KD of MS2 coat protein [1]: 14.8 nM | apparent KD of MS2 coat protein [2]: 19.5 nM | apparent KD of MS2 coat protein [3]: 17.8 nM

GAUUAUGCGAGCUUUAGGGACAUGAGGAUCACCCAUGUUCGUCUUAUUAGUCUGAAUGCACUGACAUACCUAAAUCU [JMF 75] (puzzle: Sensor v3, turn-off variant 1)
apparent KD of MS2 coat protein [1]: 16.2 nM | apparent KD of MS2 coat protein [2]: 17.7 nM | apparent KD of MS2 coat protein [3]: 16.1 nM

GAUUAUGCGAGCUUUAGGGACAUGAGGAUCACCCAUGUUCGUCUUAUUGAUCUAGAUGCACUAACAUACCUAAAUCU [JMF 25] (puzzle: Sensor v3, turn-off variant 1)
apparent KD of MS2 coat protein [1]: 19.7 nM | apparent KD of MS2 coat protein [2]: 25.1 nM | apparent KD of MS2 coat protein [3]: 20.1 nM

GAUUAUGCGAGCUUUAGGGACAUGAGGAUCACCCAUGUUCGUCUUAUUGGUCUAAGUGCACUAACAUACCUAAAUCU [JMF 30] (puzzle: Sensor v3, turn-off variant 1)
apparent KD of MS2 coat protein [1]: 21.2 nM | apparent KD of MS2 coat protein [2]: 38.5 nM | apparent KD of MS2 coat protein [3]: 20 nM

GAUUAUGCGAGCUUUAGGGACAUGAGGAUCACCCAUGUUCGUCUUAUUGGUCUGAAUACACUGACAUACCUAAAUCU [JMF 56] (Eterna round: R96, puzzle: Sensor v3, turn-off variant 1)
apparent KD of MS2 coat protein (input ligand: FMN 200 uM): 17.1 nM | apparent KD of MS2 coat protein [4]: 18.3 nM | apparent KD of MS2 coat protein (input ligand: none): 18.7 nM

GAUUAUGCGAGCUUUAGGGACAUGAGGAUCACCCAUGUUCGUCUUAUUGGUCUGAAUACACUGACAUACCUAAAUCU [JMF 56] (puzzle: Sensor v3, turn-off variant 1)
apparent KD of MS2 coat protein [1]: 16.6 nM | apparent KD of MS2 coat protein [2]: 21.8 nM | apparent KD of MS2 coat protein [3]: 15.9 nM

GAUUAUGCGAGCUUUAGGGACAUGAGGAUCACCCAUGUUCGUCUUAUUGGUCUGAGUACACUGACAUACCUAAAUCU [JMF 63] (puzzle: Sensor v3, turn-off variant 1)
apparent KD of MS2 coat protein [1]: 13.3 nM | apparent KD of MS2 coat protein [2]: 15.9 nM | apparent KD of MS2 coat protein [3]: 12.8 nM

GAUUGACAUGAGGAUCACCCAUGUGAGGAUAUCGGCCGGACCUUGUUAGCUUCCAUCGUGAGAAGGCACAUAGG [Exclusion 1 V35] (puzzle: Exclusion 1)
apparent KD of MS2 coat protein [2]: 26.9 nM

GAUUGAGAAGGAUAUACAUGAGGAUCACCCAUGUGCUUCAGCUAGGAGACUAGCAUUGGUAGAAGGUCUUAAUC [Mod of lroppy 15 - Jieux - Exclusion 3] (Eterna round: R97, puzzle: Exclusion 3)
apparent KD of MS2 coat protein (input ligand: FMN 200 uM): 69.7 nM | apparent KD of MS2 coat protein (input ligand: none): 19.2 nM

GCAACGAGAGGAUAUGCUUAACGACCGGCGGAAGCGGAUCCACAUGAGGAUCACCCAUGUAGAAGGCUCGGACC [Eternabot (Original) Solution 24] (Eterna round: R97, puzzle: Exclusion 2)
apparent KD of MS2 coat protein (input ligand: FMN 200 uM): 35.8 nM | apparent KD of MS2 coat protein (input ligand: none): 27.4 nM

GCAAGACAUGAGGAUCACCCAUGUGAGGAUAUUGCUCGACACCUGCGCGAAGAGUCGAUAAGAAGGUACAGGGU [Eternabot (L2) Solution 90] (Eterna round: R97, puzzle: Exclusion 1)
apparent KD of MS2 coat protein (input ligand: FMN 200 uM): 69.4 nM | apparent KD of MS2 coat protein (input ligand: none): 52.6 nM

GCAAGCGACUAGGCUCGUCUUAUAUUGAAAAGAUUGAAAACAUGAGGAUCACCCAUGUAUGUGGGAAAGUUGAAGUG [JR_SV3TOV2_Sub010] (puzzle: Sensor v3, turn-off variant 2)
apparent KD of MS2 coat protein [1]: 393 nM | apparent KD of MS2 coat protein [2]: 526 nM | apparent KD of MS2 coat protein [3]: 332 nM

GCAAGCGAUUAGGCUCGUCUUAUAAAGAAAAGAAUGAAAACAUGAGGAUCACCCAUGUAAGUGGGAAAGUUGAAGUG [JR_SV3TOV2_Sub009] (puzzle: Sensor v3, turn-off variant 2)
apparent KD of MS2 coat protein [1]: 267 nM | apparent KD of MS2 coat protein [2]: 1340 nM | apparent KD of MS2 coat protein [3]: 210 nM

GCAAGCUUAAUCAGUAUGAACAUGAGGAUCACCCAUGUAUAAGGUAAUUCUUUUGGGUUUUUUAUUGCUCGUCUUAU [JR_STOV1_Sub027] (Eterna round: R97, puzzle: Sensor, turn-off variant 1)
apparent KD of MS2 coat protein (input ligand: FMN 200 uM): 245 nM | apparent KD of MS2 coat protein (input ligand: none): 297 nM

GCAAGCUUUUGCUCGCCUUACAUGAGGAUCACCCAUGUGGGCCCGGGCCCGGGCCCGCCGGGCCCGGGCCCGGGCCC [-59.4, -80.7 kcal, A 10%] (Eterna round: R97, puzzle: Sensor, turn-off variant 1)
apparent KD of MS2 coat protein (input ligand: FMN 200 uM): 26.5 nM | apparent KD of MS2 coat protein (input ligand: none): 32.2 nM

GCAAUUUCAAAGGAUAUACCUAAUUAACUAUCGGUAGAAGGUUGGACAUGAGGAUCACCCAUGUGCUCACACUU [Eternabot (L2) Solution 67] (Eterna round: R97, puzzle: Exclusion 6)
apparent KD of MS2 coat protein (input ligand: FMN 200 uM): 15.9 nM | apparent KD of MS2 coat protein (input ligand: none): 15.6 nM

GCACAGGCAGGAUAUACAUGAGGAUCACCCAUGUGACCCUUGAUGUACUCGCGUACACGUAGAAGGGCCUGUGC [Omei Ex3 Model Bachelor's Dilema v41] (Eterna round: R97, puzzle: Exclusion 3)
apparent KD of MS2 coat protein (input ligand: FMN 200 uM): 633 nM | apparent KD of MS2 coat protein (input ligand: none): 407 nM

GCACAUGAGGAUCACCCAUGUCAAUGGGAAUUCCUUCUUCAACAGGAUAUCCGAUGGAGAACGUCGGAGAAGGGUUCGCCAGUA [Eternabot solution 15] (Eterna round: R96, puzzle: Exclusion NG 3)
apparent KD of MS2 coat protein (input ligand: FMN 200 uM): 31.4 nM | apparent KD of MS2 coat protein [4]: 19.5 nM | apparent KD of MS2 coat protein (input ligand: none): 25.7 nM

GCACCGCGAGGAUAUACAUGAGGAUCACCCAUGUGUCCGCAGCGAUGUGUGUACAAAUGUAGAAGGCGCGUAAA [EX3 #60] (Eterna round: R97, puzzle: Exclusion 3)
apparent KD of MS2 coat protein (input ligand: FMN 200 uM): 21.5 nM | apparent KD of MS2 coat protein (input ligand: none): 12.1 nM

GCACGGAAAUUCCAUAAAACCACAUGAGGAUCACCCAUGUCUCAGGAUAUGGUCUGGAUUACAGGCCAGAAGGGAGAACCGUGC [Eli exng3 - 059] (Eterna round: R96, puzzle: Exclusion NG 3)
apparent KD of MS2 coat protein (input ligand: FMN 200 uM): 15.1 nM | apparent KD of MS2 coat protein [4]: 10.2 nM | apparent KD of MS2 coat protein (input ligand: none): 11.8 nM

GCACGGAGUGCAGGAUAUCUGUGCGAUUAGCUCAGAGAAGGGCACAUGAGGAUCACCCAUGUGUAUAAACACAAUAAUCCGUGC [Eli exng1 - 068] (Eterna round: R96, puzzle: Exclusion NG 1)
apparent KD of MS2 coat protein (input ligand: FMN 200 uM): 18.6 nM | apparent KD of MS2 coat protein [4]: 9.94 nM | apparent KD of MS2 coat protein (input ligand: none): 14 nM

GCACGGAGUGUAGGAUAUCUGUGCGAUUAGCUCAGAGAAGGACACAUGAGGAUCACCCAUGUGUAACUCAACAUUAAUCCGUGC [Eli exng1 - 074] (Eterna round: R96, puzzle: Exclusion NG 1)
apparent KD of MS2 coat protein (input ligand: FMN 200 uM): 9.63 nM | apparent KD of MS2 coat protein [4]: 7.59 nM | apparent KD of MS2 coat protein (input ligand: none): 10.6 nM

GCACGGAGUGUAGGAUAUCUGUGCGAUUAGCUCAGAGAAGGGCACAUGAGGAUCACCCAUGUGUAUAAACACAAUAAUCCGUGC [Eli exng1 - 069] (Eterna round: R96, puzzle: Exclusion NG 1)
apparent KD of MS2 coat protein (input ligand: FMN 200 uM): 12.8 nM | apparent KD of MS2 coat protein [4]: 7.91 nM | apparent KD of MS2 coat protein (input ligand: none): 14.1 nM

GCACGGUAAGUGAGGAUAUACCUCUGGAUACAGAGGUAGAAGGCACAUGAGGAUCACCCAUGUCCUAGCCGUGC [Fiskers BMX 4 - 88] (puzzle: Brourd's mod of Exclusion 4)
apparent KD of MS2 coat protein [2]: 32.9 nM

GCACGGUAAGUGAGGAUAUACCUCUGGAUACAGAGGUAGAAGGCACAUGAGGAUCACCCAUGUCUAAGCCGUGC [Fiskers BMX 4 - 83] (puzzle: Brourd's mod of Exclusion 4)
apparent KD of MS2 coat protein [2]: 14.7 nM

GCACGGUAAGUGAGGAUAUACCUCUGGAUACAGAGGUAGAAGGCACAUGAGGAUCACCCAUGUUCAAGCCGUGC [Fiskers BMX 4 - 85] (puzzle: Brourd's mod of Exclusion 4)
apparent KD of MS2 coat protein [1]: 14.5 nM | apparent KD of MS2 coat protein [2]: 13.2 nM | apparent KD of MS2 coat protein [3]: 14.4 nM

GCACGGUAAGUGAGGAUAUACCUCUGGAUACAGAGGUAGAAGGCACAUGAGGAUCACCCAUGUUCCAGCCGUGC [Fiskers BMX 4 - 86] (puzzle: Brourd's mod of Exclusion 4)
apparent KD of MS2 coat protein [2]: 14.7 nM

GCACGGUUGCUAGGAUAUCCUUGCGAUUAGCAAGGAGAAGGAGCACAUGAGGAUCACCCAUGUACCUCAAUAAUCCAUCCGUGC [Eli exng1 - 029] (Eterna round: R96, puzzle: Exclusion NG 1)
apparent KD of MS2 coat protein [4]: 11 nM

GCACGGUUGGUAGGAUAUCCUUGCGAUUAGCAAGGAGAAGGACCACAUGAGGAUCACCCAUGUACCUCAAUUAUCCUUCCGUGC [Eli exng1 - 025] (Eterna round: R96, puzzle: Exclusion NG 1)
apparent KD of MS2 coat protein (input ligand: FMN 200 uM): 13.7 nM | apparent KD of MS2 coat protein [4]: 10.9 nM | apparent KD of MS2 coat protein (input ligand: none): 14.9 nM
